Literature values, collected in patent US9453050B2, “Compositions for treating glioma” (GLIA SP Z.O.O., priority 2011, dated 2016).

Key:
[1] = biological target: T1, high affinity receptor (GM-CSFRα.βc complex) (Homo sapiens, UniProt P15509+P32927); settings: VonFeldt et al.; cited from earlier work
T1 sequence (P15509 23-400): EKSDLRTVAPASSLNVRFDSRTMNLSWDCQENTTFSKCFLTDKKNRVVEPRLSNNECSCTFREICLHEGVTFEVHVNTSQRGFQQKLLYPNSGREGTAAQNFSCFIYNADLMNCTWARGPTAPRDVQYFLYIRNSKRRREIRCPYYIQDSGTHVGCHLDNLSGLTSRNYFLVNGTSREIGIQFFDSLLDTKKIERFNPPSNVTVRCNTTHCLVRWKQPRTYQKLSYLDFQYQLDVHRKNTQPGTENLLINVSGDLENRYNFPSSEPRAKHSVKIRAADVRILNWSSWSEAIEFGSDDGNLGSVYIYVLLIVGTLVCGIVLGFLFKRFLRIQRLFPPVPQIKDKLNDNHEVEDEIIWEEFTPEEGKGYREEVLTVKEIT
T1 sequence (P32927 17-897): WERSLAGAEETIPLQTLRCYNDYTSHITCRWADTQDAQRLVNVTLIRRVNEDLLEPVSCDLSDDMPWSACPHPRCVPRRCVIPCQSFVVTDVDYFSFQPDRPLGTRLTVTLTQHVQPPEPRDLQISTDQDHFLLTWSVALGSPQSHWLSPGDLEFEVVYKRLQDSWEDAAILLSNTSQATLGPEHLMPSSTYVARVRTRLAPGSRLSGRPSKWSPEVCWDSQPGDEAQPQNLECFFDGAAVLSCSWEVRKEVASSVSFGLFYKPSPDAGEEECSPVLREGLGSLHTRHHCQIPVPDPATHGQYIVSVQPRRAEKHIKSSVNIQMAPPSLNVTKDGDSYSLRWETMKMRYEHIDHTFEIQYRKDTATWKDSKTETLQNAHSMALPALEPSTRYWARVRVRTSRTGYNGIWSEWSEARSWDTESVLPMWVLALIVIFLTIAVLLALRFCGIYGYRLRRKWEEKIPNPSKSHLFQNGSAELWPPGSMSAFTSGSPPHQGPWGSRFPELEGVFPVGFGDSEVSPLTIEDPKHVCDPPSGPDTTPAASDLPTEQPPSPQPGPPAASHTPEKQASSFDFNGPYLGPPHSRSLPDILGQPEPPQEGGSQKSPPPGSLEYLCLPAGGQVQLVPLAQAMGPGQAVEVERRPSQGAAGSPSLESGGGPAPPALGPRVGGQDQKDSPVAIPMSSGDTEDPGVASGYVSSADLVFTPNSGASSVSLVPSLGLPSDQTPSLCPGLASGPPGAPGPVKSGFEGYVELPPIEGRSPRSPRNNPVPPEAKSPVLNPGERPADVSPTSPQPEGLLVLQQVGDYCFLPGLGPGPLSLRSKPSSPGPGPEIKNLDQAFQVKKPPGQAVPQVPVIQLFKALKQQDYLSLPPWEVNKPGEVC

[2] = biological target: T2, low affinity receptor (GM-CSFRα alone) (Homo sapiens, UniProt P15509); settings: VonFeldt et al.; cited from earlier work
T2 sequence (P15509 23-400): T1 sequence (P15509 23-400)

Row | Substance | high affinity receptor binding [1] | low affinity receptor binding [2]
1 | amino acids 17-31 (the A helix) of GM-CSF: linear peptide analog of GM-CSF, VonFeldt et al. (NAIQEARRLLNLSRD; UniProt P04141 34-48, looked up, fragment) | inhibits | –
2 | peptide consisting of amino acids 54-78 (B and C helices): linear peptide analog of GM-CSF, VonFeldt et al. (CLQTRLELYKQGLRGSLTKLKGPLT; UniProt P04141 71-95, looked up, fragment) | – | inhibits
